Results from the supplement of paper PMC9170038.

Experiments:
MS2 coat protein [1] = assay: apparent KD of MS2 coat protein, switch ON state; designed switch direction (-1 OFF switch, 1 ON switch): -1; higher = weaker reporter binding; conditions: FMN input: 0 or 200 uM; Eterna round: R93 (includes R88 designs)
How it was run: (§1)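 Values are apparent KD, taken as the median for each design of fits to normalised binding curves from individual clusters. The designed RNA switches were transcribed on-chip from Illumina sequencing clusters and exposed to SNAP-549-labelled MS2 coat protein at twofold increasing amounts from 0.7 or 1.5 nM to 3 µM. Titration used 100 mM Tris-HCl pH 7.5, 80 mM KCl and 4 mM MgCl2, without or with constant ligand.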

MS2 coat protein [2] = assay: apparent KD of MS2 coat protein, switch OFF state (with FMN for OFF switches, without FMN for ON switches); designed switch direction (-1 OFF switch, 1 ON switch): -1; higher = weaker reporter binding; conditions: FMN input: 0 or 200 uM; Eterna round: R93 (includes R88 designs)
How it was run: as §1

MS2 coat protein [3] = assay: apparent KD of MS2 coat protein; designed switch direction (-1 OFF switch, 1 ON switch): 1; higher = weaker reporter binding
How it was run: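 RNA switches sharing common flanks were transcribed by stalled E. coli RNA polymerase on Illumina chips. A doubling series of SNAP-549-labelled MS2 coat protein, from 0.7 or 1.5 nM to 3 µM, was applied in Tris-HCl pH 7.5 buffer with KCl, MgCl2, BSA, DTT, tRNA and Tween-20. Each step lasted 0.8–1.5 h at the bottom of the series and 10–20 min at the top. Normalised cluster fluorescence was curve-fitted, giving apparent KD as the per-design median over clusters.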

| Sequence | apparent KD of MS2 coat protein (MS2 coat protein [1]) [nM] | apparent KD of MS2 coat protein (MS2 coat protein [2]) [nM] | also measured |
| --- | --- | --- | --- |
| AAAAAACAUGAGGAUCACCCAUGUCAGGAUAUACAAAAUAAAAUAAAAAUAAAAUAAAGUAGAAGGGACAAAAA [May 8] | 28.5 | 25.4 | – |
| CUCAAGUAAGGAUAUCAAAGAAAAGAAGAGAAAGAAAAGAAUGAGAAGGUACAUGAGGAUCACCCAUGUAAGAA [EteRNA is fun!] | 35.2 | 23 | – |
| UCCAGACAUGAGGAUCACCCAUGUCAGGAUAUCUAGAAAACCUCAUGUAAAAAAAACUAGAGAAGGGAUAUGAA [Design 96: Pseudoknot F] | 19.6 | 15.7 | – |
| AUAGUACAUGAGGAUCACCCAUGUCAGGAUAUUGGAUAUGACAUAAAAAAAAUGUUAACGAGAAGGGACUAUAA [EX1 Malc#16] | 29.2 | 27.7 | – |
| AAGAACUUAGGAUAUACAAGGAAGAAAGAAAAGAAAAGAAAACAUGAGGAUCACCCAUGUAGAAGGAAGUAGAA [EteRNA is fun!] | 40.9 | 21.5 | – |
| AAGAAGUGAGGAUAUCGAAGACUGUCGAAAAGACAGUCGAACGAGAAGGCACAUGAGGAUCACCCAUGUGGGAG [Mat - Exaclusion 4 - Eli mod - D71] | 80.5 | 176 | – |
| AAAAAGGCAGGAUAUACGAACAUGUCGAAAGACGUGAAGGGACAUGAGGAUCACCCAUGUAGAAGGGUCAAGAA [Mat - Exclusion 2 - JL mod - D76] | 90.8 | 91.9 | – |
| AAAAAGUCAGGAUAUGUGGAAAAAAUAAAAAAAAUAAAAACACAGAAGGGACAUGAGGAUCACCCAUGUAAAAA [Ex 4 May 19] | 71.7 | 47.2 | – |
| AAAAGUAGAGGAUAUACAUGAGGAUCACCCAUGUAGAAAGGAAGUGUAUAUAUGGCGUGUAGAAGGCUGCAUGA [Power strip] | 29.3 | 32.3 | – |
| AAAACUGGAGGAUAUACAUGAGGAUCACCCAUGUGUGGGUAGACUGUGUCGGCGUCAGGUAGAAGGCCACAAAA [Gilly Gone Silly 31 - Jieux - Exclusion 3] | 185 | 167 | – |
| AAGGGACAUGAGGAUCACCCAUGUGAGGAUAUGAUGCGAAUAAAGAAAUAAUAAAGCAUCAGAAGGCACACCAA [Mat - Exclusion 1 - Eli mod - D67] | 82.4 | 88.5 | – |
| AUAAUCCUAGGAUAUACAUGGAUAUACAUUCAUGUGGACCUACAUGAGGAUCACCCAUGUAGAAGGAGGAUGAA [Mat - Same state - Mayanna Mod - D138] | 35 | 39.5 | – |
| CUAAAGCGAGGAUAUACAAUAAAAGGGAAUAAGGGAAAAAAACAUGAGGAUCACCCAUGUAGAAGGCGCCGAAA [Ex 2 #1] | 25.6 | 26.5 | – |
| AAGAACUGAGGAUAUACUAAAGAAAUGAAAAGAAAGAAAGAACAUGAGGAUCACCCAUGUAGAAGGCAGAAGAA [Ya'ammu Nubwoserre] | 29.9 | 18 | – |
| AAGAAUCGAGGAUAUACAAGAAAGAAAGAAAAGAAAAGAAAACAUGAGGAUCACCCAUGUAGAAGGCGAUAGAA [EteRNA is fun!] | 22 | 24.6 | – |
| CUCUUGUCAGGAUAUCAAAGAAAAGAAAAGAAAGAAAAGAAUGAGAAGGGACAUGAGGAUCACCCAUGUAAGAA [EteRNA is fun!] | 32.1 | 34.8 | – |
| AAAAAGGGAGGAUAUACAUGAGGAUCACCCAUGUAACAGACGAAAAAGAGUCUGAAAUGUAGAAGGCCCAAAAA [65%, Moding Exclusion3-cac2, 5] | 24.6 | 48.4 | – |
| CUCUAGUGAGGAUAUCGAAGAAAAGAAGAGAAAGAAAAGAACGAGAAGGCACAUGAGGAUCACCCAUGUAAGAA [EteRNA is fun!] | 23.6 | 49 | – |
| AAGAACUAAGGAUAUACAAAAUAAAAGAAAAGAAAGAAAGAACAUGAGGAUCACCCAUGUAGAAGGUAGAAGAA [Khakheperre Senusret II] | 19.9 | 15.1 | – |
| AUAAACGGAGGAUAUACAUGAGGAUCACCCAUGUAAAUAAAUAGGAGAGCCACAAUAAGUAGAAGGUCGAAUAA [JR_Exc003_Sub010] | 35.6 | 32.4 | – |
| CUCAAGUUAGGAUAUGGAAGAAAAGAAGAGAAAGAAAAGAACCAGAAGGAACAUGAGGAUCACCCAUGUAAGAA [EteRNA is fun!] | 58.1 | 62.7 | – |

| Sequence | apparent KD of MS2 coat protein (MS2 coat protein [1]) [nM] | apparent KD of MS2 coat protein (MS2 coat protein [2]) [nM] | also measured |
| --- | --- | --- | --- |
| AUAAUGCGAGGAUAUACAUGAGGAUCACCCAUGUAAAUAAAUAGGAGAGCCACAUUAAGUAGAAGGUGCAUUAA [JR_Exc003_Sub501] | 32.8 | 84.7 | – |
| AAAAAACAUGAGGAUCACCCAUGUGAGGAUAUGCAAAACCCAAAUAAAAAGAGAAAAAGCAGAAGGCACAAAAA [wbt round 1 mod 2] | 23.5 | 30.3 | – |
| AUAAACAGAGGAUAUACGCGGAUUAUUGAAAUUAUUGAUUCACAUGAGGAUCACCCAUGUAGAAGGCUGGAAAA [LROPPY Exclusion 2 - v04_doubled Us] | 35.7 | 124 | – |
| AAUAAGUGAGGAUAUCCAAAUAGUAGAUAAGAUUCCCUAAAGGAGAAGGCACAUGAGGAUCACCCAUGUAAAUA [JR_Exc004_Sub006] | 36.1 | 31.5 | – |
| ACUUAGACAGGAUAUACGUGAGUGGAAAAAGUGUUUCCACUACAUGAGGAUCACCCAUGUAGAAGGGUCUAAGA [Ex2 Design 181: Random 6B] | 48.8 | 82.3 | – |
| AAGAAGCUAGGAUAUACUAAAGAAAUGAAAAGAAAUAAAGAACAUGAGGAUCACCCAUGUAGAAGGAGCAAGAA [Djefare] | 42.3 | 18.9 | – |
| AUCAUGUAAGGAUAUUCAAGAAAAGAAAAGAAAGAAAAGAAGAAGAAGGUACAUGAGGAUCACCCAUGUAAGAA [EteRNA is fun!] | 42.5 | 64.2 | – |
| AAAGGAUCAGGAUAUGUGUGGAAAAAGUGUAUCCAAAAAAAACAUGAGGAUCACCCAUGUAGAAGGGAUCCAAA [Mod 2 of Normal (20/19) by Nando, Round 1] | 177 | 441 | – |
| UUUACGUGAGGAUAUGCGAAUAGUACGUAAGUCUUACAGACGCAGAAGGCACAUGAGGAUCACCCAUGUGAACC [JR_Exc004_Sub310] | 22.7 | 55.9 | – |
| GUAAACCUAGGAUAUACAUGAGGAUCACCCAUGUAAAAAUUAAUAAAAAGAAAAACAAGUAGAAGGAGGUAGAU [JR_Exc003_Sub1225] | 19.6 | 20.8 | – |
| AAGAACCAAGGAUAUACAUGAGGAUCACCCAUGUAAAAGAAAGAGGGAAAAGAGAAAAGUAGAAGGUGGAAGAA [Ptolemy VI Philometor] | 27.5 | 32.1 | – |
| AGUGAGUCAGGAUAUUAGUGAAGAAUAAAAGAAAUAACAACUAAGAAGGGACAUGAGGAUCACCCAUGUACACA [May 58] | 26 | 20.9 | – |
| AAAAAACAUGAGGAUCACCCAUGUGAGGAUAUCCAGAAUGGAAUAAAAUAACAAGAAAGGAGAAGGCACAAAAA [Ex 1 May 37] | 67.7 | 42.1 | – |
| CUCUAGUCAGGAUAUGCAUGAAAUGAAGUGAAAGAAAAGAAGCAGAAGGGACAUGAGGAUCACCCAUGUUAGAA [EteRNA is fun!] | 29.6 | 38.3 | – |
| AAAAAAGGAGGAUAUACGUACAUGUCAAAAGACGUGAAGGGACAUGAGGAUCACCCAUGUAGAAGGCUUAAAAA [JL Stem Breaker 6] | 47.7 | 18.1 | – |
| GUGUACAGAGGAUAUACAUAAGCAUGGAAACAUGCAACUUCACAUGAGGAUCACCCAUGUAGAAGGCUGUACAC [Ex2: 729] | 12.1 | 13.7 | – |
| GAAGAACAUGAGGAUCACCCAUGUCAGGAUAUACAGAAGGGAAUAAUAUAACCUGGAAGUAGAAGGGACAAGAA [Ex 1 May 44] | 30.2 | 65.4 | – |
| AGAAACCUAGGAUAUACAUGAGGAUCACCCAUGUAAAGAAAGAAGGGAGCCACAAGAAGUAGAAGGAGGAAGAA [JR_Exc003_Sub005] | 16.9 | 33.4 | – |
| UUAAGCCACGGGCAGGAUAUGUAUUAAAAUACAUGAGGAUCACCCAUGUGCAGGUGUAACACCUGGCAGAAGGGCCAAUCGCGGC [Soondi - 4] (puzzle: Same State 2) | – | – | apparent KD of MS2 coat protein (MS2 coat protein [3]; Eterna round: R95, input ligand: FMN 200 uM): 29.2 nM; apparent KD of MS2 coat protein (MS2 coat protein [3]; Eterna round: R95, input ligand: microRNA oligo, concentration not stated): 149 nM; apparent KD of MS2 coat protein (MS2 coat protein [3]; Eterna round: R95, input ligand: none): 171 nM |
| AUAAACAGGCUAGGAUAUCCGGAAACUACAGGACACGACCCUGUGGACAUGAGGAUCACCCAUGUGGAGAAGGAGCCACAUGAA [Onvete] (Eterna round: R96, puzzle: Same State NG 2) | – | – | apparent KD of MS2 coat protein (MS2 coat protein [3]; input ligand: FMN 200 uM): 31.4 nM; apparent KD of MS2 coat protein (MS2 coat protein [3]; input ligand: microRNA oligo, concentration not stated): 223 nM; apparent KD of MS2 coat protein (MS2 coat protein [3]; input ligand: none): 145 nM |
